Target: T1, Rv0792c (Mycobacterium tuberculosis) (UniProt O86331)
T1 sequence: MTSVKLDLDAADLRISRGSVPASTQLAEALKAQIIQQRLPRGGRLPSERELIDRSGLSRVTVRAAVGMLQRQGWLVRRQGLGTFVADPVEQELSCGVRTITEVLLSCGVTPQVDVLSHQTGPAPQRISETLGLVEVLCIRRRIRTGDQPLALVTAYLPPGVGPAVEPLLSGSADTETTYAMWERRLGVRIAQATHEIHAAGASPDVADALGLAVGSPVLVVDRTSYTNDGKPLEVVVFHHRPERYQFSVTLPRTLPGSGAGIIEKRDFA
Test: ALISA

Sequence | binding signal [% reduction] | Kd [nM]
TAGGGTCTCGGATCGGAGGGATGGGCAGTGTGTGCGGTATGTTG [Rv0792c_5 aptamer (printed Rv0729c_5)] | 90 | 
TCGTATTCATCTCTACATCCGGTAATCCGCACATGAGTAATCC [Rv0792c_1 aptamer (printed Rv0729c_1)] | 90 | 
TCTAGTCATTCGTCATAATCCCATCTGTTTCTTCCTCCTTCCGT [Rv0792c_2 aptamer (printed Rv0729c_2)] |  | 51

Reference: doi:10.1101/2021.09.17.460839
